Experimental data from patent publication US20230272056A1 (Merck Sharp & Dohme, published 2023).
Residue numbers refer to the chain shown, from its start. Names and notes keep the numbering of the source.

B1: 64BJN (Fab, V domains shown)
VH: EVQLVQSGAEVKKPGASVKVSCKASGYTFTTYWMHWVRQAPGQGLEWMGRIDPQSGGSKYAQKFQGRATLTVDTSTSTAYMELSRLRSDDTAVYYCARWDYGGYFDVWGQGTLVTVSS
VL: DIQMTQSPSSLSASVGDRVTITCRASQDIYNYLNWYQQKPGKAVKLLIYYTSHLHSGVPSRFSGSGSGTDYTLTISSLQPEDFATYFCQQGDTLPWTFGQGTKLEIKR
notes: also called VH S31T I58S / VL T30Y R53H (64BJN)
B2: 65BJN (Fab, V domains shown)
VH: B1 VH with T31S, W33D, M34L, S58I, W99Y, Y101Q
VL: B1 VL with N31Y, H53R
notes: also called VH W33D M34L W99Y Y101Q / VL T30Y N31Y (65BJN)
B3: 66BJN (Fab, V domains shown)
VH: B1 VH with T31S, W33D, S55T, S58I, Y101H
VL: B1 VL with H53R, L94Q
notes: also called VH W33D S55T Y101H / VL T30Y L94Q (66BJN)
B4: 67BJN (Fab, V domains shown)
VH: B1 VH with T31S, W33D, S58I
VL: B1 VL with H53V
notes: also called VH W33D / VL T30Y R53V (67BJN)
B5: 68BJN (Fab, V domains shown)
VH: B1 VH with T31S, H35Q, S55D, G57D, S58I, W99Y
VL: B1 VL with H53V
notes: also called VH H35Q S55D S57D W99Y / VL T30Y R53V (68BJN)
B6: 71BJN (Fab, V domains shown)
VH: B1 VH with T31S, W33D, S55T, G57D, S58I, Y104Q
VL: B1 VL with H53G
notes: also called VH W33D S55T G57D Y104Q / VL T30Y R53G (71BJN)
B7: 72BJN (Fab, V domains shown)
VH: B1 VH with T31Q, W33D, S58I, W99Y
VL: B1 VL with H53I
notes: also called VH S31Q W33D W99Y / VL T30Y R53I (72BJN)
B8: 73BJN (Fab, V domains shown)
VH: B1 VH with T31S, W33D, S58I
VL: B1 VL with H53R
notes: also called VH W33D / VL T30Y (73BJN)
B9: 74BJN (Fab, V domains shown)
VH: B1 VH with T31Y, W33D, M34L, S58I
VL: B1 VL with H53R, T93D, L94I
notes: also called VH S31Y W33D M34L / VL T30Y T93D L94I (74BJN)
B10: 75BJN (Fab, V domains shown)
VH: B1 VH with T31K, W33D, S55D, S58F
VL: B1 VL with Y30F, H53Y, T93E
notes: Label says VL T30Y but the printed LCDR1 reads F at 30; also called VH S31K W33D S55D I58F / VL T30Y R53Y T93E (75BJN)
B11: 76BJN (Fab, V domains shown)
VH: B1 VH with T31Y, W33D, Q54Y, S55D, G57D, S58I
VL: B1 VL with H53L, T93E
notes: also called VH S31Y W33D Q54Y S55D G57D / VL T30Y R53L T93E (76BJN)
B12: 77BJN (Fab, V domains shown)
VH: B1 VH with T31S, W33D, S58V
VL: B1 VL with H53V, T93E
notes: also called VH W33D I58V / VL T30Y R53V T93E (77BJN)
B13: 78BJN (Fab, V domains shown)
VH: B1 VH with T31S, W33D, S58I, K59R
VL: B1 VL with H53N, T93E
notes: also called VH W33D K59R / VL T30Y R53N T93E (78BJN)
B14: 79BJN (Fab, V domains shown)
VH: B1 VH with T31S, W33D, S55D, G57D, S58V
VL: B1 VL with H53G, T93E
notes: also called VH W33D S55D S57D I58V / VL T30Y R53G T93E (79BJN)
B15: 80BJN (Fab, V domains shown)
VH: B1 VH with T31S, W33D, S58I, K59R, Y104Q
VL: B1 VL with H53I
notes: also called VH W33D K59R Y104Q / VL T30Y R53I (80BJN)
B16: 81BJN (Fab, V domains shown)
VH: B1 VH with T31E, W33D, S58I, K59R, Y104Q, V107A
VL: B1 VL with H53V
notes: also called VH S31E W33D K59R Y104Q V107A / VL T30Y R53V (81BJN)
B17: 82BJN (Fab, V domains shown)
VH: B1 VH with T31S, W33Y, H35N, S58V, D100H, Y104Q
VL: B1 VL with H53G
notes: also called VH W33Y H35N I58V D100H Y104Q / VL T30Y R53G (82BJN)

Each binder was assayed against T1, human LAP-TGFB3 Fc fusion (human) (assay: SPR).
T1 construct: also called human LAP-TGFβ3; LAP-TGFβ isoform 3
T1 sequence (chain, as listed by the source limits assumed): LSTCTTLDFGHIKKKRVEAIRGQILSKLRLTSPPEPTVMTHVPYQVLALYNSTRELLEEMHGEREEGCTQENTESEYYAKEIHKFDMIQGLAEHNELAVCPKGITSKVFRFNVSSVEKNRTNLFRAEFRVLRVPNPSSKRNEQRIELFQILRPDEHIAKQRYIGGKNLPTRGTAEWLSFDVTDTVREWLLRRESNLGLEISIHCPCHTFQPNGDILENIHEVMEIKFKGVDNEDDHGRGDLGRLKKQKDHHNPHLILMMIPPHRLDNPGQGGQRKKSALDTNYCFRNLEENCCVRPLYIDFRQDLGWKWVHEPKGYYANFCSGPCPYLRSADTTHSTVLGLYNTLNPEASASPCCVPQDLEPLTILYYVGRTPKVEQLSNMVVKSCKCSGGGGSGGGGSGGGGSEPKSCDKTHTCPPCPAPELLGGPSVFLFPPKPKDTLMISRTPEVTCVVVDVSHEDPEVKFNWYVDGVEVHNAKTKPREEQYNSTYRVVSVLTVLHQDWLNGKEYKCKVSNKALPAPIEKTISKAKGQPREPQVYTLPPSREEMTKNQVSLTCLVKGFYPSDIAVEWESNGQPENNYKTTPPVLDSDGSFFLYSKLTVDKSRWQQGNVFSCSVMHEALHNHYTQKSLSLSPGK
Excerpt: (§1) This Example describes the isoform specificity of the yeast display mutants to bind to human LAP-TGFβ isoforms 1, 2, and 3 using surface plasmon resonance. A Series S CM4 sensor chip (GE Healthcare, catalog BR100534) was immobilized with an anti-human Fc capture antibody following the kit protocol (GE Healthcare, catalog BR100839) on a Biacore T200 instrument with 1× HBS-EP+ (Teknova, catalog H8022). […] Binding specificity experiments between human LAP-TGFβ isoforms 2 and 3 and yeast display mutants were performed in 1× HBS-EP+ with 0.1 mg/mL BSA at 25° C. Approximately 20-40 RU amounts of human LAP-TGFβ2 and 3 were captured to the anti-human Fc surface followed by injection of 1000 nM Fab including a negative control 0 nM Fab. The binding data were double referenced by subtraction of signal from a reference (capture surface only) flow cell and the negative control 0 nM Fab injection. Binding rate constants were determined by fitting the data with a 1:1 binding model (GE Healthcare Biacore T200 Evaluation software 3.0).
B1: no binding (tested: 1000 nM Fab).
B2: no binding (tested: 1000 nM Fab).
B3: no binding (tested: 1000 nM Fab).
B4: no binding (tested: 1000 nM Fab).
B5: no binding (tested: 1000 nM Fab).
B6: no binding (tested: 1000 nM Fab).
B7: no binding (tested: 1000 nM Fab).
B8: no binding (tested: 1000 nM Fab).
B9: no binding (tested: 1000 nM Fab).
B10: no binding (tested: 1000 nM Fab).
B11: no binding (tested: 1000 nM Fab).
B12: no binding (tested: 1000 nM Fab).
B13: no binding (tested: 1000 nM Fab).
B14: no binding (tested: 1000 nM Fab).
B15: no binding (tested: 1000 nM Fab).
B16: no binding (tested: 1000 nM Fab).
B17: no binding (tested: 1000 nM Fab).

The binders below were run against T2, human LAP-TGFB2 Fc fusion (human) (assay: SPR).
T2 construct: also called human LAP-TGFβ2; LAP-TGFβ isoform 2
T2 sequence (chain, as listed by the source limits assumed): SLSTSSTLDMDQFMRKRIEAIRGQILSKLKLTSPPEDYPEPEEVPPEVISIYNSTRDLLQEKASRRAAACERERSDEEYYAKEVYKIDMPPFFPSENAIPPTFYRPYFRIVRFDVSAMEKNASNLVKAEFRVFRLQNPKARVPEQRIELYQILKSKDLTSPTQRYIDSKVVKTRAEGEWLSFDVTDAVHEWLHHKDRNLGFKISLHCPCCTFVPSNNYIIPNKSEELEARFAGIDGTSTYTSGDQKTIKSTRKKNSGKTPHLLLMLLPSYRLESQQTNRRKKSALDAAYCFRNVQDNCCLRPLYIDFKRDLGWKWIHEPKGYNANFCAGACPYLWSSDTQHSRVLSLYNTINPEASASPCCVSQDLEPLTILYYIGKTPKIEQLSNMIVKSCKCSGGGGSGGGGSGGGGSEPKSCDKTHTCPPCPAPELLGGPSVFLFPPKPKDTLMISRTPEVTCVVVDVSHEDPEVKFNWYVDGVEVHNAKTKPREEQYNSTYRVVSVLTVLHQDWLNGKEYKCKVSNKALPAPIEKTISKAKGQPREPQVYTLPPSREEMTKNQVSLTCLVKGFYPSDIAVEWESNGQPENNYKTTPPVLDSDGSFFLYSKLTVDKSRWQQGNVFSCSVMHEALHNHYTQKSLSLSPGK
Excerpt: as §1
B1: no binding (tested: 1000 nM Fab).
B2: no binding (tested: 1000 nM Fab).
B3: no binding (tested: 1000 nM Fab).
B4: no binding (tested: 1000 nM Fab).
B5: no binding (tested: 1000 nM Fab).
B6: no binding (tested: 1000 nM Fab).
B7: no binding (tested: 1000 nM Fab).
B8: no binding (tested: 1000 nM Fab).
B9: no binding (tested: 1000 nM Fab).
B10: no binding (tested: 1000 nM Fab).
B11: no binding (tested: 1000 nM Fab).
B12: no binding (tested: 1000 nM Fab).
B13: no binding (tested: 1000 nM Fab).
B14: no binding (tested: 1000 nM Fab).
B15: no binding (tested: 1000 nM Fab).
B16: no binding (tested: 1000 nM Fab).
B17: no binding (tested: 1000 nM Fab).

The binders below were run against T3, human LAP-TGFB1 Fc fusion (human) (assay: SPR, antigen-Fc captured, Fab analyte).
T3 construct: also called human LAP-TGFβ1-Fc; human LAP-TGFβ-Fc isoform 1
T3 sequence (chain, as listed by the source limits assumed): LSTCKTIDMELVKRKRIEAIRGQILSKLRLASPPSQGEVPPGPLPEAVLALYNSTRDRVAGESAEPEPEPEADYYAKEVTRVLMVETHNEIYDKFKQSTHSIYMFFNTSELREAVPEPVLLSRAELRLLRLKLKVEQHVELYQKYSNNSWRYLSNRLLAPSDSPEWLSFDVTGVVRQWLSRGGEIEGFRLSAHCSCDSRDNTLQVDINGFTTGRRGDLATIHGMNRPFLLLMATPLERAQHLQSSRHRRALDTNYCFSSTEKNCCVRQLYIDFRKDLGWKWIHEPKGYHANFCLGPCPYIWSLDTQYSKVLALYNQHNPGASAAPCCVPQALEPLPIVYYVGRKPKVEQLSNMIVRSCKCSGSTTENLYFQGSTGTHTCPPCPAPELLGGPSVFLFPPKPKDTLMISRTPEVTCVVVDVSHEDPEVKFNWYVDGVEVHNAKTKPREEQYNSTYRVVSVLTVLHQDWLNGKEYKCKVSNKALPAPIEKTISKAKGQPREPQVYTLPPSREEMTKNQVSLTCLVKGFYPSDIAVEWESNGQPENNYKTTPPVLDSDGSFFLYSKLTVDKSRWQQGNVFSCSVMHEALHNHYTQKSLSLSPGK
Excerpt: as §1
For B1, the “Fold improvement in KD” value was 37 fold, the Kd was 2.15 nM and the koff was 0.0077 s⁻¹. It also gave a kon of 3.57e+06 M⁻¹ s⁻¹.
For B2, the “Fold improvement in KD” value was 10 fold, the Kd was 8.12 nM and the koff was 0.0238 s⁻¹. For the same binder, the kon was 2.94e+06 M⁻¹ s⁻¹.
With B3 the “Fold improvement in KD” value was 13 fold, the Kd was 6.21 nM and the koff was 0.0131 s⁻¹. For the same binder, the kon was 2.11e+06 M⁻¹ s⁻¹.
In the case of B4, the “Fold improvement in KD” value is reported as 512 fold, the Kd is reported as 0.156 nM and the koff is reported as 0.000762 s⁻¹. For the same binder, the kon was 4.87e+06 M⁻¹ s⁻¹.
For B5, the “Fold improvement in KD” value was 4200 fold, the Kd was 0.0191 nM and the koff was 8.34e-05 s⁻¹. It also gave a kon of 4.36e+06 M⁻¹ s⁻¹.
With B6 the “Fold improvement in KD” value was 3200 fold, the Kd was 0.0251 nM and the koff was 6.8e-05 s⁻¹. The kon was 2.71e+06 M⁻¹ s⁻¹.
With B7 the “Fold improvement in KD” value was 130 fold, the Kd was 0.615 nM and the koff was 0.00298 s⁻¹. The kon was 4.85e+06 M⁻¹ s⁻¹.
In the case of B8, the “Fold improvement in KD” value is reported as 133 fold, the Kd is reported as 0.601 nM and the koff is reported as 0.0031 s⁻¹. The kon was 5.15e+06 M⁻¹ s⁻¹.
For B9, the “Fold improvement in KD” value was 196 fold, the Kd was 0.408 nM and the koff was 0.00181 s⁻¹. For the same binder, the kon was 4.45e+06 M⁻¹ s⁻¹.
B10 was tested, and the “Fold improvement in KD” value was 1180 fold.
For B11, the “Fold improvement in KD” value was 768 fold, the Kd was 0.104 nM and the koff was 0.000186 s⁻¹. For the same binder, the kon was 1.8e+06 M⁻¹ s⁻¹.
B12 was tested, and the “Fold improvement in KD” value was 1540 fold, the Kd was 0.0517 nM and the koff was 0.00027 s⁻¹. It also gave a kon of 5.22e+06 M⁻¹ s⁻¹.
For B13, the “Fold improvement in KD” value was 1120 fold, the Kd was 0.0713 nM and the koff was 0.000393 s⁻¹. For the same binder, the kon was 5.52e+06 M⁻¹ s⁻¹.
For B14, the “Fold improvement in KD” value was 3630 fold, the Kd was 0.022 nM and the koff was 0.000128 s⁻¹. The kon was 5.84e+06 M⁻¹ s⁻¹.
With B15 the “Fold improvement in KD” value was 13200 fold, the Kd was 0.00607 nM and the koff was 2.52e-05 s⁻¹. The kon was 4.15e+06 M⁻¹ s⁻¹.
B16 was tested, and the “Fold improvement in KD” value was 12700 fold, the Kd was 0.00629 nM and the koff was 2.56e-05 s⁻¹. It also gave a kon of 4.08e+06 M⁻¹ s⁻¹.
For B17, the “Fold improvement in KD” value was 8610 fold, the Kd was 0.00928 nM and the koff was 2.6e-05 s⁻¹. It also gave a kon of 2.81e+06 M⁻¹ s⁻¹.
